Positions of bridges follow the written chain, without caps; N, C: chain ends. No end group written: not given here.
Tests used:
factor H [1] = molecular target: T1, factor H (Homo sapiens, UniProt P08603); experiment: Monoclonal phage ELISA, binding of phage clones to factor H (binding area localisation); details: SCR5-18 attributed in absence of stable binding to N- or C-terminus of factor H
T1 construct: Human factor H was purified from normal human serum (NHS) by 5-12% PEG precipitation; from tissue; host or cells: normal human serum (NHS)
T1 sequence (P08603 19-1231): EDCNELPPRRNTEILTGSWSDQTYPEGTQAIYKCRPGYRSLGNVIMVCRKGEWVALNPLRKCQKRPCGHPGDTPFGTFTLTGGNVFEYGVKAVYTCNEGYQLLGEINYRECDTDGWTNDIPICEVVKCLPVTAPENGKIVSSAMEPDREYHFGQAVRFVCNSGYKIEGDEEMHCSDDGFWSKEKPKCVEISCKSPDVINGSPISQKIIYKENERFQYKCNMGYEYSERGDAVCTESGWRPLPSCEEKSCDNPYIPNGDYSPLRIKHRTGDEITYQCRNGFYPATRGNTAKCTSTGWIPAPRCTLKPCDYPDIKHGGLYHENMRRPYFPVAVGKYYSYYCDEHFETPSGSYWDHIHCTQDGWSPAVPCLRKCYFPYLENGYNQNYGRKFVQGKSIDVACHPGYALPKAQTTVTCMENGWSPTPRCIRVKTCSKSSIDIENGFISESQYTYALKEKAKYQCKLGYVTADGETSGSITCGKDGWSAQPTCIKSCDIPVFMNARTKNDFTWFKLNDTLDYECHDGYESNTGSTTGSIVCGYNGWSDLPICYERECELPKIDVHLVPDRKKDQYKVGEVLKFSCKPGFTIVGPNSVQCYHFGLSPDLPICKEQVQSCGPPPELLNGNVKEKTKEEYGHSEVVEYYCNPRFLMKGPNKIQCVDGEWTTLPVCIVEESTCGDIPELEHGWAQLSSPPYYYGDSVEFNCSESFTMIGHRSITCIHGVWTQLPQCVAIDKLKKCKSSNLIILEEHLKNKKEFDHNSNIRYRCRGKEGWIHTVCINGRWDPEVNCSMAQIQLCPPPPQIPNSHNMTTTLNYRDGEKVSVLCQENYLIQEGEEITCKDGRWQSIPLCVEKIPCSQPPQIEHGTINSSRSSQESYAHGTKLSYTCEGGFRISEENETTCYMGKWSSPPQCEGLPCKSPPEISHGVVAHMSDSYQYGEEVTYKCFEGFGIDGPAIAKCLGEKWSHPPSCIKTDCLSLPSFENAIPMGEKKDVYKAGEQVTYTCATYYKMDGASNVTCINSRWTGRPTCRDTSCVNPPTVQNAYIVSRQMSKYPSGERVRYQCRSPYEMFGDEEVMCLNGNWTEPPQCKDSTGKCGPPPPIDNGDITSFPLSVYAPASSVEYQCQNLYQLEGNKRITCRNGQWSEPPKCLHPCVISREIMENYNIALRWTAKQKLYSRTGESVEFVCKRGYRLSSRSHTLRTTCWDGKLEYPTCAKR
Procedure: (§1) Microtiter wells were coated overnight with either factor H or BSA at 5 μg/mL in PBS at 4° C., and saturated with 5% non-fat milk in PBST for 1 h. Completely separated individual phage plaques from the third round of screening were picked and amplified. Phage particles of each amplified individual phage plaque were added to both factor H- and BSA-coated wells in parallel and allowed to bind at RT for 1 h. After six washes with PBST, bound phages were detected with HRP-conjugated anti-M13 monoclonal antibody (GE Healthcare), using ABTS (Roche) for color development. Clones that bound to factor H but not to BSA were considered positive; single-stranded DNA from positive clones was prepared using an M13 kit (Qiagen, Valencia, Calif.) and sequenced by the DNA sequencing facility of the University of Pennsylvania.
(§2) To localize the binding sites on factor H of the positive clones, we further tested each clone by monoclonal phage ELISA for binding to factor H and its N- and C-terminal fragments, i.e. fH1-4 and fH19-20.

Sheep erythrocytes = experiment: Hemolytic assay (factor H cell-surface binding); format: cell-based; details: for effect on hemolytic assay: peptide expressed as fusion protein with phage PIII domain, not shown
Procedure: (§3) To determine whether the binding of the 5C6 peptide interferes with the regulatory activity and cell-surface binding capacity of factor H, we performed factor H cofactor activity assays using purified C3b, factor H and factor I, as well as hemolytic assays, both which were performed in the presence of different concentrations of the 5C6 peptide. The hemolysis assay experiments were repeated at least three times using lepirudin plasma from different blood donors.
Hemolytic assays were performed to determine whether the peptide altered factor H cell-surface binding activity. Sheep erythrocytes (Cocalico Biological Inc., Reamstown, Pa.) were washed with VBS containing 5 mM Mg^2+/EGTA (VBS-Mg^2+/EGTA) until the supernatant was clear. The assay was titrated by lysing erythrocytes in serial dilution with water in a final volume of 300 μl. The OD405 of the supernatants was measured, and the amount of the erythrocytes yielding an OD405 of ˜1 was used in the assay. Serial dilutions of the 5C6 peptide or monoclonal antibody MH10 (which binds fH19-20 and inhibits factor H cell surface binding) with the determined amount of sheep erythrocytes and lepirudin plasma diluted 1:10 in VBS-Mg^2+/EGTA in a final volume of 300 μL were incubated at 37° C. for 1 h in a shaking water bath. After centrifugation the OD405 of the supernatants was measured, and the OD value was used to represent the cell lysis.

fH19-20 [2] = molecular target: T2, fH19-20 (Homo sapiens, UniProt P08603); experiment: Monoclonal phage ELISA, binding of phage clones to fH19-20
T2 sequence (P08603 1107-1231): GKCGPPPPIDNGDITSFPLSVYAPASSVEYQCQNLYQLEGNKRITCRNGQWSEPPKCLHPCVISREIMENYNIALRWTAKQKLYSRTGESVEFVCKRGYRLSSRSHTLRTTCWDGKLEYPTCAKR
Procedure: as §1, §2

fH1-4 [3] = molecular target: T3, fH1-4 (Homo sapiens, UniProt P08603); experiment: SPR, fH1-4 fragment on surface-bound peptide; format: binding; details: fragment 100 nM
T3 construct: made in house
T3 sequence (P08603 19-264): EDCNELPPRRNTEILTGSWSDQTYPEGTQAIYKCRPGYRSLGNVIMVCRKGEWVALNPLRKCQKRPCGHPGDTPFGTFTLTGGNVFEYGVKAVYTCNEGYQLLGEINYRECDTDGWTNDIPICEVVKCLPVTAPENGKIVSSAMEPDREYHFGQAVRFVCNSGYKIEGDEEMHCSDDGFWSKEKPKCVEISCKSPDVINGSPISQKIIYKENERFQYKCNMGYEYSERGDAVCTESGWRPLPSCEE
Procedure: (§4) The binding of factor H with surface-bound 5C6 peptide was further characterized using surface plasmon resonance (SPR) on a ProteOn XPR36 instrument (Bio-Rad Inc., Hercules, Calif.) using PBST (10 mM sodium phosphate, 150 mM NaCl, 0.005% Tween 20) as running buffer. Streptavidin (50 μg/ml in 10 mM sodium acetate pH 5.0) was immobilized on a GLC sensor chip at 30° C. using amine coupling. The biotinylated 5C6 peptide and a biotinylated control peptide (linear compstatin; see above) were captured on separate streptavidin-coated channels to a density of ˜200 resonance units (RU). Purified factor H (Complement Technologies, Tyler, Tex.) or recombinant fragments fH1-4 and fH19-20 were injected at a concentration of 100 nM for 2 rain at a flow rate of 25 μl/min with a dissociation phase of 6 min. A single injection of 2 M NaCl for 30 s was used to regenerate the surface between injections. Data were processed using ProteOn Manager software by subtracting the signals from interspots and a blank streptavidin channel. In order to estimate the apparent binding affinity, a twofold dilution series of factor H (0.24-500 nM) was injected using the same protocol and fitted to various kinetic models using ProteOn Manager. […]

fH19-20 [4] = molecular target: T2, fH19-20; experiment: SPR, fH19-20 fragment on surface-bound peptide; format: binding; details: fragment 100 nM
Procedure: as §4

factor H [5] = molecular target: T1, factor H; experiment: SPR, factor H on surface-bound peptide; format: binding; details: for SPR binding of factor H to immobilized peptide: biotinylated peptide on streptavidin chip, factor H 100 nM
Procedure: The binding of factor H with surface-bound 5C6 peptide was further characterized using surface plasmon resonance (SPR) on a ProteOn XPR36 instrument (Bio-Rad Inc., Hercules, Calif.) using PBST (10 mM sodium phosphate, 150 mM NaCl, 0.005% Tween 20) as running buffer. Streptavidin (50 μg/ml in 10 mM sodium acetate pH 5.0) was immobilized on a GLC sensor chip at 30° C. using amine coupling. The biotinylated 5C6 peptide and a biotinylated control peptide (linear compstatin; see above) were captured on separate streptavidin-coated channels to a density of ˜200 resonance units (RU). Purified factor H (Complement Technologies, Tyler, Tex.) or recombinant fragments fH1-4 and fH19-20 were injected at a concentration of 100 nM for 2 rain at a flow rate of 25 μl/min with a dissociation phase of 6 min. A single injection of 2 M NaCl for 30 s was used to regenerate the surface between injections. Data were processed using ProteOn Manager software by subtracting the signals from interspots and a blank streptavidin channel. In order to estimate the apparent binding affinity, a twofold dilution series of factor H (0.24-500 nM) was injected using the same protocol and fitted to various kinetic models using ProteOn Manager. In order to exclude sensor chip matrix-specific surface binding, the same experiment was repeated on Biacore 3000 instrument (GE Healthcare) using a SA chip under the same conditions as described above.

factor H [6] = molecular target: T1, factor H; experiment: ELISA, binding of purified factor H to immobilized biotinylated peptide; details: biotinylated peptide captured by coated streptavidin, polyclonal antibody detection
Procedure: (§5) Two approaches were used to evaluate the binding of synthetic peptides to factor H. First, we used peptide-phage competition assays, in which serially diluted synthetic peptide was added to its parent phage at the step of phage binding to coated factor H. The rest of the steps were performed as described above for monoclonal phage ELISA. Second, ELISA experiments were used to evaluate the binding of factor H to the immobilized peptide. Microtiter plates were coated with streptavidin (New England Biolabs) at 10 μg/ml in PBS at 4° C. overnight, and saturated with 2% BSA in PBS. After washing, either the biotinylated 5C6 peptide or a biotinylated control peptide (linear compstatin; IAVVQDWGHHRAT; SEQ ID NO:10) was added at 10 μg/ml and allowed to bind at RT for 30 min. The wells were washed again, and factor H serially diluted in PBS, starting with 2.5 μg/ml, was added. After 1 h of binding, the plates were washed, and bound factor H was detected with goat anti-human factor H polyclonal antibody (Quidel, San Diego, Calif.), followed by HRP-conjugated rabbit anti-goat IgG (Bio-Rad). […]

[7] = molecular target: T4, factor H cofactor activity (Homo sapiens, UniProt P08603); experiment: Factor H cofactor activity assay (factor I-mediated cleavage of C3b); format: biochemical; details: for effect on cofactor assay: peptide expressed as fusion protein with phage PIII domain, not shown
T4 construct: Human factor H was purified from normal human serum (NHS) by 5-12% PEG precipitation; from tissue; host or cells: normal human serum (factor H, C3); factor I from unnamed 'other sources'
T4 sequence (P08603 19-1231): as the sequence (P08603 19-1231) above
Procedure: as §3
The factor H cofactor activity assay was performed according to known methods. In brief, 1.14 μM C3b, 16 nM factor I, and 72 nM factor H were incubated with various amounts of the 5C6 peptide (0.4, 4, and 40 μM, respectively) in PBS at 37° C. for 1 hr in a final volume of 20 μl. The reaction was terminated by adding SDS-PAGE loading buffer, and the samples were analyzed by 8% SDS-PAGE under reducing conditions, followed by Coomassie blue staining.

[8] = tested on: AP complement activation (surface-bound activated C3); experiment: Inhibition of biomaterial-induced AP activation by immobilized peptide (surface-bound activated C3); format: biochemical, human
Procedure: Polystyrene microtiter wells, which served as a model biomaterial, were coated overnight with streptavidin (10 μg/ml in PBS) at 4° C. After washing, the biotinylated 5C6 peptide and the control peptide (10 μg/ml in PBS) were added to the wells and incubated at RT for 30 min. The wells were again washed and serially diluted lepirudin plasma in VBS-Mg^2+/EGTA was added and incubated at RT for 1 h. In some experiments intended to monitor the inhibition of AP by immobilized peptide on a HSA monolayer, the washed wells were saturated with 2% HSA in PBS for 1 h, prior to the addition of plasma. In both series of experiments, the wells were then washed, and the binding sites were saturated with 2% BSA in PBS for 1 h. Bound fragments of activated C3 were detected with an HRP-conjugated goat anti-human C3 polyclonal antibody (Cappel, Aurora, Ohio). In parallel, captured factor H from serum was detected with goat anti-human factor H polyclonal antibody followed by HRP-conjugated rabbit anti-goat IgG in duplicate wells as described above.

factor H [9] = molecular target: T1, factor H; experiment: Capture of factor H from plasma by immobilized peptide; format: binding; details: vs control peptide
Procedure: as §5, with “After washing, either the biotinylated 5C6 peptide or a biotinylated control peptide (linear compstatin; IAVVQDWGHHRAT; SEQ ID NO:10) was added at 10 μg/ml and allowed to bind at RT for 30 min. The wells were washed again, and factor H serially diluted in PBS, starting with 2.5 μg/ml, was added.” left out
Polystyrene microtiter wells, which served as a model biomaterial, were coated overnight with streptavidin (10 μg/ml in PBS) at 4° C. […] Bound fragments of activated C3 were detected with an HRP-conjugated goat anti-human C3 polyclonal antibody (Cappel, Aurora, Ohio). In parallel, captured factor H from serum was detected with goat anti-human factor H polyclonal antibody followed by HRP-conjugated rabbit anti-goat IgG in duplicate wells as described above.

factor H [10] = molecular target: T1, factor H; experiment: Factor H concentration in plasma after incubation on peptide-coated surface; details: data not shown
factor H [11] = molecular target: T1, factor H; experiment: Peptide-phage competition assay; format: binding; details: serially diluted synthetic peptide; coated factor H
Procedure: as §5

fH1-4 [12] = molecular target: T3, fH1-4; experiment: Monoclonal phage ELISA, binding of phage clones to fH1-4
Procedure: as §1, §2

With ASPSWCSYSHWCRH [5D1] the “Binding area on factor H” value (factor H [1]) was “SCR5-18”.
In the case of ASSCMYSYWCTH [5-2B2], the “Binding area on factor H” value (factor H [1]) is reported as “SCR5-18”.
For ASSFKCDYSHWCLH [5E10], the “Binding area on factor H” value (factor H [1]) was “SCR5-18”.
For ASSGMCFTKKTVLC [4A1], the “effect on hemolytic assay” value (Sheep erythrocytes) was “affected”, the “binding of phage clone to fH19-20” value (fH19-20 [2]) was “bind to the C-terminal two SCR of factor H” and the “Binding area on factor H” value (factor H [1]) was “SCR19-20”.
With ASSNVCSYSYWCAH [5G11] the “Binding area on factor H” value (factor H [1]) was “SCR5-18”.
With “ASSSRCTYDHWCSH (disulfide 6-12 (inferred); not fully specified; also: biotinylated) [5C6, used biotinylated when immobilized]” the “SPR binding of fH1-4 fragment to immobilized peptide” value (fH1-4 [3]) was “no binding”, the “lysis of sheep erythrocytes” value (Sheep erythrocytes; 10-fold diluted lepirudin plasma, peptide up to 40 μM) was “No lysis” and the “effect on hemolytic assay” value (Sheep erythrocytes) was “no such effect”. For the same sequence, the “SPR binding of fH19-20 fragment to immobilized peptide” value (fH19-20 [4]) was “a significant SPR response could also be detected for the fH19-20 fragment, this interaction was not stable”, the “SPR binding of factor H to immobilized peptide” value (factor H [5]) was “high binding activity and stability” and the “SPR apparent binding affinity for factor H” value (factor H [5]; dilution series of factor H 0.24-500 nM, deviation from single-site model, apparent) was “concentration-dependent binding with high affinity”. For the same sequence, the “binding signal for factor H on immobilized peptide (ELISA)” value (factor H [6]) was “strong binding signal”, the “effect on cofactor assay” value [7] was “no such effect” and the “effect on factor H cofactor activity” value ([7]; synthetic peptide up to 40 μM, 550-fold excess over factor H (72 nM)) was “did not inhibit”. For the same sequence, the “complement activation on peptide-immobilized surface” value ([8]; polystyrene with HSA monolayer, lepirudin plasma in VBS-Mg2+/EGTA, vs control peptide) was “substantially inhibited”, the “complement activation on peptide-immobilized surface” value ([8]; polystyrene without HSA pre-saturation, plasma) was “strongly inhibited” and the “Binding area on factor H” value (factor H [1]) was “SCR5-18”. The “factor H capture from plasma by immobilized peptide” value (factor H [9]; polystyrene with HSA monolayer) was “pronounced factor H capture”, the “factor H capture from plasma by immobilized peptide” value (factor H [9]; polystyrene without HSA pre-saturation) was “captured more factor H” and the “factor H concentration in plasma incubated on peptide-coated surface” value (factor H [10]) was “no significant decline”. The “inhibition of binding of the other class 3 phages to factor H by 5C6 peptide” value (factor H [11]) was “strongly inhibited” and the “inhibition of parent phage binding to factor H by synthetic peptide” value (factor H [11]) was “inhibited its parent phages from binding to factor H in a dose-dependent manner”.
In the case of ASSYDVGYSHDCRF [5-2C6], the “binding of phage clone to fH1-4” value (fH1-4 [12]) is reported as “bound to the N-terminal regulatory region of factor H”, the “effect on cofactor assay” value [7] is reported as “affected” and the “Binding area on factor H” value (factor H [1]) is reported as “SCR1-4”.
“IAVVQDWGHHRAT [Control Peptide (LC), reference compound]” was tested, and the “SPR binding of factor H to immobilized peptide” value (factor H [5]) was “no significant binding” and the “binding signal for factor H on immobilized peptide (ELISA)” value (factor H [6]) was “not”.

From patent publication US8962795B2, “Factor H binding peptides and uses thereof” (The Trustees of the University of Pennsylvania, priority 2010, dated 2015)
